In this data set the target is Kunitz domain inhibitor KD1 derived from hepatocyte growth factor activator inhibitor-1B (HAI-1B) (UniProt O43278).
Chain of Kunitz domain inhibitor KD1 derived from hepatocyte growth factor activator inhibitor-1B (HAI-1B) (O43278 246-303): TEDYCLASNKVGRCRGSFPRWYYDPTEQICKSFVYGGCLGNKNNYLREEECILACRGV

Chain of soluble form of HEPSIN comprising the entire extracellular domain (human HEPSIN Arg45-Leu417, His-tagged) (chain, as listed by the source): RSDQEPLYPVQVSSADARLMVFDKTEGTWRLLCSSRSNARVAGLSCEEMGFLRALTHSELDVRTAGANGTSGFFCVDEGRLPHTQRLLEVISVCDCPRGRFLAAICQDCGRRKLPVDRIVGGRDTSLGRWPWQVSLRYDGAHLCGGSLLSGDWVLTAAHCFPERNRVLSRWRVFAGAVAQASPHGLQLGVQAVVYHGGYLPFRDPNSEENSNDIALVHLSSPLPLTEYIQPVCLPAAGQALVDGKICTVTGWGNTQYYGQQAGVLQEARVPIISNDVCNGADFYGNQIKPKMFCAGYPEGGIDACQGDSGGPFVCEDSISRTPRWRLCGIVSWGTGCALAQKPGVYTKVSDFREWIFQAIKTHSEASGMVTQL

For the substance “soluble form of HEPSIN comprising the entire extracellular domain (human HEPSIN Arg45-Leu417, His-tagged)”, the “HEPSIN activity in a chromogenic substrate assay with the para-nitroanilide substrate S2366” value is “completely inhibited HEPSIN activity at a concentration of 50 nM”.
